Source: the domain aggregation screens of Martell et al. (2025)

Experiment: soluble fraction after stress (log2 fold change); higher = more stays soluble; pooled small domains, quantitative proteomics
Conditions: stress: pH 4
In short: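 Values are on a log2 scale, where higher means more of the domain stayed soluble after pH 4 stress. They are fold changes in the soluble amount of each domain from pooled custom libraries, measured by high-throughput quantitative proteomics. The fold change is taken to reflect aggregation propensity.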

Sequence | soluble fraction (log2)
HMRESPYRRVAKFLLLIGTAEAAKIVSRLDQDQVEKVMLELSGIRSVPRDEATVILAEFESLLQQAR | -1.2
HMTLGARTLAAIQSLPKVQQAVFTMKHFEGLKYREISQITGTSEGALKASYHIALEKIKAFLREK | -0.443
HMAQPIPSGADIRAAREAAGMTLRRFAEYIAGPDFSTWSRYETGKPIRVKNISPEVWQRVRKFIAQNKG | 0.129
HMVARPVLQIGSTGADVTAIQARLGVSQTGYFGVLTAAAVTNFQRSNGIAASGKVGATTWAKLMQSA | 0.316
HMDLKENQHILQISNKGVQMGNVLKDLIIQTLNITNGNQIKAAKLLAISRAKLRYRIEQLGINISGKNI | 0.0187
HMDKSHYEELGVSRTATHAEIRRAYRHLMRTLHPDSNDGRVDAVRITKVNEAWNVLSQSSSRNAYDKSQV | -0.0249
HMTRRVIRAPAAGIMRSNVKLGDLVKEGDVIAWIGEHEIKAPLTGMVRGLLNDGLAVVGGFKIGDI | 0.157
HMKFGEQIKERRQELDLTQAEVAEKLFVTRQAVSNWEHNKTYPDLNMLVKISNVYQISLDSLLR | -0.0339
HMMNNKEIGTRIAVLRKGMGDSQAKLAERLDVSPQAVSKWETGQSLPDIGNLLKLSWLFRTSINHILEGS | -0.384
HMTGDNQTIGGGGFHHVAIRAHDFDASVKFYGETLGFREKIAWGEGDKRAIMMDTGDGNYIEIF | -0.0678
HMHGERVVTAGQTVRVVFTSNGLQVSSEGKALAAGAVGDDIQVRAASGKVIRGTVTGPGVVQV | ≥ 0.43
HMTKYKEIVDQLRTNIYEGVFPALSKLPEQTALAKRFQTSRMTIQKALNQLKQEGLISTKRGHGTYVNSAT | 0.021
HMGVDASVDSKLDLLSQVLDSDQVKEQLPEAVLEQLAQNLDRWRSLHEESELQDDDIAELNRLLGLFGLG | -1.67
HMGVREIIVQFLEQFDKPKSVQEIVEYVLRYRNTTENSIRSTMYSGSQFRQFDNGYFGLSDKSYPNEYIYA | -1.25
HMDNEVTIAVQVNGKLRDKLIVALDTPNEKIEQLALALPKVIQNTSGLTVRKVIVIPNRLVNIVA | 0.123
HMGSQELIQLGERIRQKRKDSHLTQETFAEKAGISVNTVSRIEGGQAAMSIEIFAKLVEILDADANELLG | -1.07
HMKFTPPTLEQIKNEMLLKTDEYNADIQSDRFFTYYDSNGWMVGKNKMKKFLVSLVAVFAATSA | -0.374
HMPAMYKAERMNQILSILADQGDVDVGTLARQFGVSLVTIRKDLTYLESSGQLVRTHGGAIAVA | -0.26
HMATPKRGFRKQLAPLVQSGTITREEAGELSRSSGDATALRTKIGELMKAGKLTRKEAGELYSDAFPENA | 0.0387
HMGLSIPLMGAKASDIEISTLNDEVQRKLKIIVKEQGHENLQRVVPLPSEAREIQAHFINGRLHLR | 0.214
HMKTPIEFGSVYNDPVRYVIGMSIKSAESINQAIYDMMKIFGDENNMNKFDSLPDEQAVLDMVNSF | -0.208
HMKSVFQPIYEDLLSRIQDGRLLPGMPLPSENALAVQYGTSRPTIRRAIGLLVEKSLVIRQPGIGSIVAS | -0.493
HMASVDDILDRFKQAAKVTTDADLAKVLGLSRQSIAAARLRAKIPASWFPKMSSLFNISTEWLYRG | 0.011
HMSYPEIFQSLTEREQKIADMIAEHLSNKEIAEKMFLSEGTIKQYINQIYSKLQITGDIRNKRKQLIELFH | -0.0222
HMTGDISRALDQLPADMRTVLILYALEKQRYEDIAQITGVSVGTVKSRLNRARQKLAAILANQREQNE | -0.101

Sequence | soluble fraction (log2)
HMLESPVEAIIRQIKQLITNGKLKPGDRLPAERLLAENFGVGRGYVREAIMKLEFFGLLKTSPQSGTYVAG | -0.257
HMKLSIGGTIEKLRRNKGLSHQQLANALGVTPDTVEKWEINAAYPDITLLSPIARLLGTTLDALLMF | -0.828
HMAGTPAVVKWFNPTKGFGFVTPREAGSDALLHASVLAKQGKRWLQEGTVVEVVLEEGPKGLVVSEVLTIE | -0.469
HMDSTLDLVATQGGRLDQVLAEMIPEHSRNRLQHWIKAGRVLVDGQPVLEPKHKIYGGEDLAVRVD | 0.123
HMKRFSPPSIEEVDSYIREKGYTVDAERFVNFYESKGWYVGKNKMKNWRAAVATWQKEDNKRN | -0.0455
HMEDGEALARAVASLPGKYREVLFLKYSHGYSVDEIALILSMSKENVKKTIQRARKKLEQLLESE | -0.507
HMGNLVDGINKKLTHVRDSLPEGYTLDEFKSAFQQQYPAAYDAYEGDKGKQFDKWLGNVIQSLPKK | 0.137
HMEVLSKRGSTGTEVINIQKKLKNWGYYTGSVDGIYGKLTEEAVRYFQRTNGLTVDGIAGKNTLAAMGIA | 0.399
HMGSKDLPFSTFMSEIDKGNITSVDIRGNEIQGTFANGTKFRTYSPNYPNLVEKLNGKGVSITAGPV | 0.211
HMIPEGKWMEDPISEGQIKFIETLIKQAIDSGQDALGAEAKQYLSSGEATKGNASSMIDKLKDAL | -0.479
HMFKMRVNGKEVIGMAITAKPQANPIDVADEIKKFVIDANTKLPSTMKLEVLYDATGIFRASISEVIS | -0.86
HMAGPRRRLLDAAIDRAAERGLGDLSLRALAEELGTSHRMLSHHFGSKDGLWLAIVEEVERRQ | -0.661
HMYNTDAMGVRIGELRRAKGLTQEAFAKTLGISAQAVSKWETGLGFPDISLLPMIAETLGTKIETLFGAE | -0.272
HMSKKMLASIFDTISGIGKKRLKKIWDNYTSLNELKDDSLENIYAKTQIPINLITKIKEKLE | ≥ 0.43
HMGQERAVPDVKGQSFDMAQGNISRAGLKAVVTDSVYDSYARPGTVVEQSPIPLAKIKRGGTVYLTLVA | -0.0752
HMAIVNVEVPSLVGKTEQEARNLLTEAGLKVNVVNDEDESKNDGVVLRQSKDAGTEVQEGTTITITVNKVS | -0.467
HMAVRLADMAAEKIRKMIIENKFDAGEPLSEMRLAEMFNVSRTPIREAIAILEQEGLLTTVHGKGAFIS | -0.637
HMTLTEQQITDNYKELRKIINDTFSGLRLDKLNHMYDDLEDRMVVAPASSVEHYHNSKVGGYVEHILHVI | -0.132
HMTKLTTDERSVYLHIQNKPGVSASSIREALGYKKSKLTSILAQLLEVHKIIDTEGTGKSLKYIL | 0.091
HMIGGASVFKQFLPLADKMLLTLIHSEFEGDTYFPVFSEKEWLLQESSSLLSATGYQLSFQTYIR | 0.013
HMKYKWLAGQLRRELLENGGKKGYKLPTELELARRYQLSRQTVRRALQLLEEEGLILRRQGSGAYATGKPP | 0.0629
HMDYGTATASAILYLEKIDPENPYLLLAKDTITTNPKMSVNFALKGIIESKKGEKEENLNKALEIMSSL | 0.0949
HMSEHLTLVVSDEDAGHRVDQFLVSRLAHMTRSQIQKLIKDGQVTIDTKLVRASTTVHTDNIVTIEFPPAV | 0.314
HMDIGTYTVTASALNIRQYPTASSAKTGSYPNGSIVTIYEYLTDGSWGRTDDGWISMNYVSRRY | -1.37
HMKAPLTFVIEGKEYEAFDQYKTGAELKQLAGIPLDTELFLSISKPYQDELIENEKQVNLARPETEYFFVK | -0.494

Sequence | soluble fraction (log2)
HMISEKEIKIIEDILARWNGKLTWDDFTSKVAKKLNLPSLSKFTLMGYPEIKQAFLTRKQTLK | -0.382
HMPVEFVKISIKPGHPWENQFVRDIVSLPDLLMVLILRGEERIIPNGNTKILVGDKIVLSALSPG | -1.4
HMNKMIIELGEKLKALRTENHLRQDQVARLVNVEKSSISMYETGMRQPSYTTLVRLADVFNVTTDYLLGRK | 0.307
HMTMVVIMNADATQADIEGVISAIEEKGLEAKVMEGAHQKIVGVIGDKTKLAATPLDAMHGVETTVAIS | 0.131
HMHQLQLDSRSRLHMTGVIEVESFDEATIVLTTTRGTLIVRGENLHLQLLRLDGGEVLVDGTVDSLSYE | -1.22
HMYSYNKEEVGKRIKSIRQQKGLTQESFGELFGASKGNVATWEKGISLPNASRLREIADLVSITVEELLYG | 0.00486
HMGVGITAPLAGNIFKIVVQPGDVVASGDVVLVLEAMKMETEIRAASGGTVSQVLVREGDAVDAGHTLITL | -1.49
HMSESGTFRAEAADAGRRLDVALAERLRLSRAAAQRLIAAGLVLVEGSPARKRQILHAGETVAWRAAPP | -0.0686
HMDTIASESVRNRIEELISNENPKKPLSDQALVKMLQEFDIKIARRTVAKYREMLKIPPSSKRKQV | 0.0429
HMTKYVEGQKYVFEFRDGTITIGTYLRTGEGNIYIKDLSGEDIYIPKIMIAQIHLATDDNVKGDEFWF | -1.17
HMHDEKHHQLANEIARKWAALRGNRDFAAADELKNLAAEAGVELQATKQAVGQGALAKLKENFDPVKLEAL | 0.22
HMEMKVIPFNQMTRDQFDQLDRFLGRLAAAQAMGSLRLTKAQQNYFLNQVKQLDLYRKRILN | 0.0144
HMRPRQDRSEETRDRILDAVVELIAERGLAGVSHRAVADRAGVSLSATSYYFGSKAELERAALEEHYRR | -0.992
HMDKLSYALGLSMGHNFLGSGIKSLNVEDFAKGVEAVYKQEKPEISFDEAKKIINEFFSNLQDEIAE | -1.33
HMEQTIKKYVNVATLNFRSGPSTSYSIISTLSKGTKVEVISTTNNWSKIIYDGKIGYVSSEYLSKSI | ≥ 0.43
HMDAQLRVPDLTPYNYSELKENTSLYEGFTIEVVEERSTGDYAAGTVLDQDPKADTLIQDGDSTVIKLVIA | -0.115
HMNATLEQLTQREREIAVLMAEGLTNAQIGSRLNVSMASVKAHLSHIFTKLGVDNRVSAAMMVL | -0.0121
HMTLSDIGHAVRTRRTELGLSQVQLARLSGLSRQTLVGLENGTLNDLGINRVAQLLAVLGLDAP | -0.203
HMTGKTTLEYLNPLLERGIPVWDYLAKASGKAKEEVQEMVSKGLVPGAEAAKAIADYMGAEFAGSMA | -0.343
HMHRGEIVDGVIASVNPRSILIDIGGKSDALVHPRELERMSDEDLRSLKPGQDVSVYVIETDSDGTMLVSL | -0.86
HMTRQEFIRKLQEALNGKLDAATIQDHLKFYDDYIIEEMRKGKSEQEVLELLGDPWAIAKTIVDAS | -0.44
HMLSTNDYNENKNKLIKDFEIKFIIKHLKLNKGNVAATARSINFHPVSLRQKIAKLGIDVDEVMAG | -0.341
HMKQGKGIIVVDGKLMPEDFNVATLSLDEVESITVLKGEKAVALYGEKAKEREVLLITTQKG | -0.316
HMTDSQLVEAENHVALRQAMAHLGPRERELIGLYYFEEQSQTQIAARFGVSQMQVSRWLTSAVGRIRGQMA | 0.131
HMQISNEEELEKIIENVIESNPEKVKAYQSGKSGLIGFFMGQVMKESGGQANPNLVNQILKGKL | 0.109
